This note sets out measurements from patent US20250312452A1 (BRISTAR IMMUNOTECH, published 2025).

One assay concerns the target T1, MSLN (UniProt Q13421 296-580, limits assumed).
T1 construct: also called mesothelin
In words: BLI affinity detection.

Assay [1] has as its target human Claudin18.2 expressed on cells (human) (UniProt P56856). In words: flow cytometry on SNU1-hClaudin18.2 cells, APC anti-human IgG Fc secondary antibody.
In assay [2] the target is T2, Human Claudin18.2 His tag protein (human, UniProt P56856-2 1-261, limits assumed).
T2 construct: also called Claudin18.2 protein; not shown: His tag
T2 sequence (looked up): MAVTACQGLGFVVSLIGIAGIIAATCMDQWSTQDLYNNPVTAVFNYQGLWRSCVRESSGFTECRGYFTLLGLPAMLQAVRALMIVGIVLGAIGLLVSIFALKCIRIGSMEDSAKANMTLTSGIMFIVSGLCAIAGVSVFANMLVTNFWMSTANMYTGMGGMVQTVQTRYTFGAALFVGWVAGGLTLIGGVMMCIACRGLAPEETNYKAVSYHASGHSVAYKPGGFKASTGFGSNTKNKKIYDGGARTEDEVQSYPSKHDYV
As to the kind of experiment: BLI (Octet), antibody on Protein A biosensor. Here is the method:
The affinity of Claudin18.2 nanobodies was determined. The affinity of the antibodies was measured using the Fortebio Octet® detection instrument based on the biolayer interferometry (BLI) technique.
After the 5 antibodies were immobilized on the Protein A biosensor, the antibodies could bind to the Human Claudin18.2 His tag protein. The measured affinity was calculated using Data Analysis 11 software of the Octet RED96e (ForteBio). The affinities (KD values) of antibody NCLD04 and antibody NCLD31 for the Claudin18.2 protein are both favorable.

Assay [3] concerns the target human Claudin18.2 expressed on cells (human) (UniProt P56856). In words: flow cytometry on SNU1-hClaudin18.2 cells.
Another assay has as its target T3, Claudin18.2 protein (UniProt P56856-2 1-261, limits assumed).
T3 sequence (looked up): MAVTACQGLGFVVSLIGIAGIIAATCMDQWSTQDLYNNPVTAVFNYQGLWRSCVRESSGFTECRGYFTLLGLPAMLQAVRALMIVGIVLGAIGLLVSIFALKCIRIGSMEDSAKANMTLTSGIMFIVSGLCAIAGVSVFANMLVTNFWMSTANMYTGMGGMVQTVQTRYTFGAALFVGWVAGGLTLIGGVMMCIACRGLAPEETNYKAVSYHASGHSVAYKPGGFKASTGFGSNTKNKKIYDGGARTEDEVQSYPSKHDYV
In words: flow cytometry of STAR-T cells stained with Claudin18.2 protein. From the text: The above-mentioned vectors were used to package lentiviruses and infect T cells. After one week of culture, the expression levels of STAR and Claudin18.2 on the cells were detected by flow cytometry.
Specifically, the expression of the Claudin18.2 antibody in the STAR structure on the cell membrane was detected by staining with the Claudin18.2 Protein antibody, and the positive rate of STAR vector infection was detected by mTCRβ. […] The protein binding of NCR8020-NCLD04α-STAR and NCLD04 STAR is relatively good, exceeding 55%. Both MND-NCLD04β-NCR802a STAR-mL15 and MND-NCR8020-NCLD04α STAR-mL15 can be successfully expressed on the membrane.

T1 sequence (Q13421 other isoform, or with tags, fused parts or gaps limits assumed): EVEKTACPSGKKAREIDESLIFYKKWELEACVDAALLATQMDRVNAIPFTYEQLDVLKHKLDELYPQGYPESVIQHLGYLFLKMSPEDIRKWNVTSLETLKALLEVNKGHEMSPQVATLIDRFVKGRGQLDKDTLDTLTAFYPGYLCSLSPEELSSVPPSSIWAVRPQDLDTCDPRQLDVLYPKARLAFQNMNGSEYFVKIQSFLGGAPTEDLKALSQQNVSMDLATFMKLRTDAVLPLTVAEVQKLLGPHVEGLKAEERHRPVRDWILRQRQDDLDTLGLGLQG

B1: NM5 (VHH)
VHH: DVQLQESGGGLVQAGGSLRLSCVGAGVSFSPYGIGWWRQAQGNQREWVASIYRSGSTNYEDFAKDRFTISRDNTKNTAYLQMNSLKPEDTAVYYCQILGTSYRGQGTQVTVSS
notes: also called nanobody NM5; NM5 antibody
With B1, binding with MSLN was characterised by a dissociation constant (Kd) of 11.4 nM.

B2: NCLD14 (VHH-IgG1 Fc) (Fc fusion)
chain: DVQLQESGGGLVQPGGSLRLSCATSGFTFSTYNMGWFRQAPGKEREFVGSIKWSASTTYYADSVKGRFTISRDNAKNTVYLQMNSLKPEDTAIYYCAGSPHIALGTRTEMYPYWGQGTQVTVSS
notes: Tested as VHH-IgG1 Fc; also called antibody NCLD14; not shown: IgG1 Fc fused to the VHH
Molecule B2 returned an EC50 (read off the curve) in assay [1] of 3 nM. Besides, in assay [2], the Kd was found to be 72.6 nM, the koff is 0.00456 s⁻¹ and the kon was 62900 M⁻¹ s⁻¹. In assay [3], this molecule showed a concentration for a half-maximal effect (EC50) of 21 nM.

B3: NCLD04-STAR (NCLD04β-STAR-a(G4S)3OX40(gh)) (other)
chain 1: DVQLQESGGGLVQPGGSLRLSCTASGLTFNDYAVSWLRQAPGKEREFVATIRGSGGVTNYGASAEGRFIISRENAENTVYLQMNSLKSEDTAVYYCNARPLFGWSEEYWGQGTQVTVSSEDLRNVTPPKVSLFEPSKAEIANKQKATLVCLARGFFPDHVELSWWVNGKEVHSGVCTDPQAYKESNYSYCLSSRLRVSATFWHNPRNHFRCQVQFHGLSEEDKWPEGSPKPVTQNISAEAWGRADCGITSASYQQGVLSATILYEILLGKATLYAVLVSTLVVMAMVKRKNS
chain 2: DIQNPEPAVYQLKDPRSQDSTLCLFTDFDSQINVPKTMESGTFITDKCVLDMKAMDSKSNGAIAWSNQTSFTCQDIFKETNATYPSSDVPCDATLTEKSFETDMNLNFQNLLVIVLRILLLKVAGFNLLMTLRLWGGGGSGGGGSGGGGSRRDQRLPPDAHKPPGGGSFRTPIQEEQADAHSTLAKI
notes: Synthetic T-cell receptor and antigen receptor on T cells; NCLD04 VHH on the beta constant region; also called NCLD04-STAR-T
With B3, the “protein binding (percent of cells)” value in the assay with Claudin18.2 protein was above 55%.
